In US20040014131A1, “Assay methods” (Pfizer Inc., priority 2002, published 2004):
[ ]: non-standard residue; d: D form. QSY7 = QSY-7 (maleimide) on Cys; βAla = NCCC(=O)O

B1: human soluble secreted endopeptidase (human SEP), recombinant (protein)
chain: RKPRGIPEAQEVSEVCTTPGCVIAAARILQNMDPTTEPCDDFYQFACGGWLRRHVIPETNSRYSIFDVLRDELEVILKAVLENSTAKDRPAVEKARTLYRSCMNQSVIEKRGSQPLLDILEVVGGWPVAMDRWNETVGLEWELERQLALMNSQFNRRVLIDLFIWNDDQNSSRHIIYIDQPTLGMPSREYYFNGGSNRKVREAYLQFMVSVATLLREDANLPRDSCLVQEDMVQVLELETQLAKATVPQEERHDVIALYHRMGLEELQSQFGLKGFNWTLFIQTVLSSVKIKLLPDEEVVVYGIPYLQNLENIIDTYSARTIQNYLVWRLVLDRIGSLSQRFKDTRVNYRKALFGTMVEEVRWRECVGYVNSNMENAVGSLYVREAFPGDSKSMVRELIDKVRTVFVETLDELGWMDEESKKKAQEKAMSIREQIGHPDYILEEMNRRLDEEYSNLNFSEDLYFENSLQNLKVGAQRSLRKLREKVDPNLWIIGAAVVNAFYSPNRNQIVFPAGILQPPFFSKEQPQALNFGGIGMVIGHEITHGFDDNGRNFDKNGNMMDWWSNFSTQHFREQSECMIYQYGNYSWDLADEQNVNGFNTLGENIADNGGVRQAYKAYLKWMAEGGKDQQLPGLDLTHEQLFFINYAQVWCGSYRPEFAIQSIKTDVHSPLKYRVLGSLQNLAAFADTFHCARGTPMHPKERCRVW
B2: Recombinant human NEP enzyme (neutral endopeptidase, neprilysin, EC 3.4.24.11) (protein)
chain: DDGICKSSDCIKSAARLIQNMDATTEPCTDFFKYACGGWLKRNVIPETSSRYGNFDILRDELEVVLKDVLQEPKTEDIVAVQKAKALYRSCINESAIDSRGGEPLLKLLPDIYGWPVATENWEQKYGASWTAEKAIAQLNSKYGKKVLINLFVGTDDKNSVNHVIHIDQPRLGLPSRDYYECTGIYKEACTAYVDFMISVARLIRQEERLPIDENQLALEMNKVMELEKEIANATAKPEDRNDPMLLYNKMTLAQIQNNFSLEINGKPFSWLNFTNEIMSTVNISITNEEDVVVYAPEYLTKLKPILTKYSARDLQNLMSWRFIMDLVSSLSRTYKESRNAFRKALYGTTSETATWRRCANYVNGNMENAVGRLYVEAAFAGESKHVVEDLIAQIREVFIQTLDDLTWMDAETKKRAEEKALAIKERIGYPDDIVSNDNKLNNEYLELNYKEDEYFENIIQNLKFSQSKQLKKLREKVDKDEWISGAAVVNAFYSSGRNQIVFPAGILQPPFFSAQQSNSLNYGGIGMVIGHEITHGFDDNGRNFNKDGDLVDWWTQQSASNFKEQSQCMVYQYGNFSWDLAGGQHLNGINTLGENIADNGGLGQAYRAYQNYIKKNGEEKLLPGLDLNHKQLFFLNFAQVWCGTYRPEYAVNSIKTDVHSPGNFRIIGTLQNSAEFSEAFHCRKNSYMNPEKKCRVW

Assays:
[1] = target: T1, human SEP (Homo sapiens, UniProt Q495T6); assay: human SEP activity, sensitivity to inhibitors; format: biochemical
T1 construct: The full length human SEP clone was termed MSSE82; made in house; host or cells: CHO cells transfected with plasmid MSSE82; dialysed culture medium used as enzyme
T1 sequence (Q495T6 75-779 limits assumed): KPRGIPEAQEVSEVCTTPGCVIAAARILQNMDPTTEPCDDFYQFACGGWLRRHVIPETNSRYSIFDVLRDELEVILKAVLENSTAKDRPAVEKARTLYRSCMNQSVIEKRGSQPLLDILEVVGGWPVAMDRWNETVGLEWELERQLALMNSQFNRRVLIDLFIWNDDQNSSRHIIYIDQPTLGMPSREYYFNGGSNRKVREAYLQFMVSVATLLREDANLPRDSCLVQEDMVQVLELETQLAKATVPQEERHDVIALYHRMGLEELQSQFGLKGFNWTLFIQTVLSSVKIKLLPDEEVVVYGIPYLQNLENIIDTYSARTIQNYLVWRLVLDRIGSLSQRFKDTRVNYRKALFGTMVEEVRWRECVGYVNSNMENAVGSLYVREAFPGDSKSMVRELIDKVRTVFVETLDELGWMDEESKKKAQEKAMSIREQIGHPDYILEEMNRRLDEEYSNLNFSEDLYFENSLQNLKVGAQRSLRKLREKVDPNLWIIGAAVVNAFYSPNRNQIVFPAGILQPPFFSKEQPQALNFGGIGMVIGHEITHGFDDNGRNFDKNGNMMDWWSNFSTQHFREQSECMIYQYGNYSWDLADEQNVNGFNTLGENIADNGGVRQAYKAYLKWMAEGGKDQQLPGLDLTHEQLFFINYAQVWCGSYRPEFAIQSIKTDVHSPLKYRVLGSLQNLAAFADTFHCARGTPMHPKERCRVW
Method: The enzymatic (proteolytic) activity of human SEP protein can be measured in an assay involving, for example, mixing a sample of the human SEP enzyme with a substrate peptide in a buffer solution (for example 50 mM HEPES; pH 7.4), incubating the mixture for a period of time (such as 1-3 hours) enough for human SEP to act to cleave a measurable portion of the peptide substrate to a product at a temperature suitable for SEP activity (typically 30-37° C.).
The effect of candidate human SEP inhibitor compounds or control test compounds such as phosphoramidon and thiorphan that may alter the activity of human SEP can be measured in this type of assay by including them in the initial mixture at a range of suitable test concentrations, typically 0.1 nM to 50 μM.
To determine the IC50 of SEP inhibitors (SEPi; for example, phosphoramidon), multiple SEP assays are performed as described above with a range of test concentrations of inhibitor included in the 50 μl of DMSO solution (made by appropriate dilution of a 10 mM 100% DMSO stock of inhibitor with 4% DMSO/50 mM HEPES pH7.4.). Using a suitable standard graph fitting computer program, a sigmoidal dose response curve is fitted to a plot of log inhibitor concentration versus MaxV (or % inhibition or % activity). The IC50 is calculated as the inhibitor concentration causing 50% maximal inhibition. […]

[2] = target: T2, mouse SEP (Mus musculus, UniProt Q9JLI3); conditions: cited from earlier work
T2 sequence (Q9JLI3 1-765): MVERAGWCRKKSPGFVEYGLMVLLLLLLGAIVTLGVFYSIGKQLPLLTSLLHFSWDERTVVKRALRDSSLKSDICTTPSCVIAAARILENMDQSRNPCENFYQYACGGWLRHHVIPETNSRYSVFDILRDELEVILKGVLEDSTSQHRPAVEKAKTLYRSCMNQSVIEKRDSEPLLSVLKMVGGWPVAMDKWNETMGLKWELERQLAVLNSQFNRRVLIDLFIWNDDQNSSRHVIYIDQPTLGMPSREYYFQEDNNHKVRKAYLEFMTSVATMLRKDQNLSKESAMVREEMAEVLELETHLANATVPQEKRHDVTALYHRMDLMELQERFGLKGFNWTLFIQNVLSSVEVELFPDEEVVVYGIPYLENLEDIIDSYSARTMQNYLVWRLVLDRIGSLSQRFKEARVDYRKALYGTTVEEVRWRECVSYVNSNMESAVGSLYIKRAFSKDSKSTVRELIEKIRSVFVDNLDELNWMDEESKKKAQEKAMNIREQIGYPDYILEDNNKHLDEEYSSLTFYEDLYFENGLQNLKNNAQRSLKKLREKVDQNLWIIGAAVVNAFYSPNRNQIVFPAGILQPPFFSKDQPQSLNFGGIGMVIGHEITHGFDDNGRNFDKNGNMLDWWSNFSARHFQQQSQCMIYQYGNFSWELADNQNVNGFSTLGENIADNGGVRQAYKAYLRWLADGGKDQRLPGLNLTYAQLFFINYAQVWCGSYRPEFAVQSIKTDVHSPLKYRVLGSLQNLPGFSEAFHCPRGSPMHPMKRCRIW

[3] = target: T3, Recombinant human NEP enzyme (Homo sapiens, UniProt P08473); assay: NEP FRET assay (384 well, homogeneous); format: biochemical; conditions: steady state kinetics of NEP enzyme with the peptide substrate
T3 construct: made in house; host or cells: Pichia pastoris
T3 sequence (P08473 whole entry): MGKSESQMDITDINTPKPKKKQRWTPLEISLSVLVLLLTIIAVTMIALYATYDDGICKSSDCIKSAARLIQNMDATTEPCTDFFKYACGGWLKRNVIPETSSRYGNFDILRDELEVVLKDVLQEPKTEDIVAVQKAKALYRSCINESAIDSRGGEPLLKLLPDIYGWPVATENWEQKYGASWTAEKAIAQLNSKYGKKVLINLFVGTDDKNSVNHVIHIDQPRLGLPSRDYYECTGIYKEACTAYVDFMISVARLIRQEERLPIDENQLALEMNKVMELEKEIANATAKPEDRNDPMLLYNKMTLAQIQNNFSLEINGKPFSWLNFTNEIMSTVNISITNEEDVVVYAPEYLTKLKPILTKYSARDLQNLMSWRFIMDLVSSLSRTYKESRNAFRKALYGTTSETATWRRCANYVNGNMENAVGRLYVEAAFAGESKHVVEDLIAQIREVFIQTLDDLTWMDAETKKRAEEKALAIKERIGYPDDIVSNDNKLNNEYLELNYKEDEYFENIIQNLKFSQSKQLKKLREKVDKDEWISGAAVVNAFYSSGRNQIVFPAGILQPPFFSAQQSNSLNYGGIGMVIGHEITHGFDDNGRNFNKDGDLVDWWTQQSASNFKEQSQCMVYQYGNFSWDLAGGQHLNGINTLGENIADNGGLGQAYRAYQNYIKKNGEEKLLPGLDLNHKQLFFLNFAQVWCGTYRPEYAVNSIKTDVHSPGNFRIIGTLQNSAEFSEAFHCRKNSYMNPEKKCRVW
Method: All assays were conducted in 384 well black, flat bottom plates, purchased from Matrix Technologies Ltd. (Cheshire, UK).
Compounds for screening were supplied as singles at 40 μM in 1% DMSO to achieve a final screening concentration of 10 μM.
The peptide substrate (Rhodamine green-Gly-Gly-dPhe-Leu-Arg-Arg-Val-Cys(QSY™7)-βAla-NH2) (SEQ ID NO: 8) was made as described above and labelled with fluorophores purchased from Molecular Probes, Inc. All other reagents were purchased from Sigma/Aldrich (Poole, Dorset, UK).
Recombinant human NEP enzyme was expressed using Pichia pastoris and purified to homogeneity using a three-step purification procedure.
All assays were performed in 50 mM Hepes buffer pH 8, 0.1% v/v pluronic-F127 and 1% v/v protease inhibitor cocktail (antipain, aprotinin, leupeptin, pepstatin A). 10 μl of compound in 1% DMSO was added to each well, followed by 20 μl of recombinant enzyme (10 nM final concentration). The reaction was initiated by the addition of 10 μl of substrate (1 μM final concentration) and plates were incubated at 25° C. for one hour. Termination of the reaction was achieved by the addition of 20 μl of Stop (excess of a known inhibitor) to a concentration of 10 μM in the well. Plates were counted using Tecan Ultra (485 nm excitation, 535 nm emission; Tecan Austria, Salzburg, Austria). […]

[4] = target: T4, Rhodamine green-Gly-Gly-dPhe-Leu-Arg-Arg-Val-Cys(QSY7)-betaAla-NH2
T4 chain: GGFLRRVCA

Molecule	sensitivity of human SEP to inhibitor [1]	sensitivity of mouse SEP to inhibitor [2]	cleavage of the FRET substrate, monitored by fluorescence [4]	other results
CC(C)C[C@H](NP(=O)(O)O[C@@H]1O[C@@H](C)[C@H](O)[C@@H](O)[C@H]1O)C(=O)N[C@@H](Cc1c[nH]c2ccccc12)C(=O)O [phosphoramidon]	sensitive	sensitive	–	–
O=C(O)CNC(=O)C(CS)Cc1ccccc1 (centres unmarked) [thiorphan]	sensitive	sensitive	–	–
Rhodamine green-Gly-Gly-dPhe-Leu-Arg-Arg-Val-Cys(QSY™7)-βAla-NH2 ({Rhodamine green}-GG[dF]LRRVC(QSY7)[βAla]-NH2) [CP4]	–	–	–	Kcat [3]: 0.083 s⁻¹; Km ([3]; 50 mM Hepes pH 8, 25° C.): 8 µM
B1	–	–	CP4 is cleaved by endopeptidases NEP or SEP, creating the cleavage product Rhodamine green-Gly-Gly-dPhe-Leu-Arg-Arg-OH	–
B2	–	–	CP4 is cleaved by endopeptidases NEP or SEP, creating the cleavage product Rhodamine green-Gly-Gly-dPhe-Leu-Arg-Arg-OH	Kcat [4]: 0.083 s⁻¹; Kcat/Km [4]: 10,500 M^-1 S^-1; Km [4]: 8 µM
